Experimental data reported in patent US12570711B2, “Platforms for co-stimulation, novel car designs and other enhancements for adoptive cellular therapy” (Angeles Therapeutics, Inc., priority 2017, dated 2026).

B1: mNEMO-K270A: mouse NEMO-K270A mutant, known to activate NF-κB constitutively (protein)
chain: MNKHPWKNQLSETVQPSGGPAEDQDMLGEESSLGKPAMLHLPSEQGTPETLQRCLEENQELRDAIRQSNQMLRERCEELLHFQVSQREEKEFLMCKFQEARKLVERLSLEKLDLRSQREQALKELEQLKKCQQQMAEDKASVKAQVTSLLGELQESQSRLEAATKDRQALEGRIRAVSEQVRQLESEREVLQQQHSVQVDQLRMQNQSVEAALRMERQAASEEKRKLAQLQAAYHQLFQDYDSHIKSSKGMQLEDLRQQLQQAEEALVAAQELIDKLKEEAEQHKIVMETVPVLKAQADIYKADFQAERHAREKLVEKKEYLQEQLEQLQREFNKLKVGCHESARIEDMRKRHVETPQPPLLPAPAHHSFHLALSNQRRSPPEEPPDFCCPKCQYQAPDMDTLQIHVMECIE
B2: hNEMO-K277A-DeltaV249-K255: mutant lacking aminoacid residues V249-K255 of human NEMO and carrying the K277A mutation (protein)
chain: MNRHLWKSQLCEMVQPSGGPAADQDVLGEESPLGKPAMLHLPSEQGAPETLQRCLEENQELRDAIRQSNQILRERCEELLHFQASQREEKEFLMCKFQEARKLVERLGLEKLDLKRQKEQALREVEHLKRCQQQMAEDKASVKAQVTSLLGELQESQSRLEAATKECQALEGRARAASEQARQLESEREALQQQHSVQVDQLRMQGQSVEAALRMERQAASEEKRKLAQLQVAYHQLFQEYDNHIKSSRGMQLEDLKQQLQQAEEALVAAQEVIDKLKEEAEQHKIVMETVPVLKAQADIYKADFQAERQAREKLAEKKELLQEQLEQLQREYSKLKASCQESARIEDMRKRHVEVSQAPLPPAPAYLSSPLALPSQRRSPPEEPPDFCCPKCQYQAPDMDTLQIHVMECIE
B3: IKK2-S177E-S181E: constitutive active mutant of IKKβ/IKK2 (protein)
chain: MSWSPSLTTQTCGAWEMKERLGTGGFGNVIRWHNQETGEQIAIKQCRQELSPRNRERWCLEIQIMRRLTHPNVVAARDVPEGMQNLAPNDLPLLAMEYCQGGDLRKYLNQFENCCGLREGAILTLLSDIASALRYLHENRIIHRDLKPENIVLQQGEQRLIHKIIDLGYAKELDQGELCTEFVGTLQYLAPELLEQQKYTVTVDYWSFGTLAFECITGFRPFLPNWQPVQWHSKVRQKSEVDIVVSEDLNGTVKFSSSLPYPNNLNSVLAERLEKWLQLMLMWHPRQRGTDPTYGPNGCFKALDDILNLKLVHILNMVTGTIHTYPVTEDESLQSLKARIQQDTGIPEEDQELLQEAGLALIPDKPATQCISDGKLNEGHTLDMDLVFLFDNSKITYETQISPRPQPESVSCILQEPKRNLAFFQLRKVWGQVWHSIQTLKEDCNRLQQGQRAAMMNLLRNNSCLSKMKNSMASMSQQLKAKLDFFKTSIQIDLEKYSEQTEFGITSDKLLLAWREMEQAVELCGRENEVKLLVERMMALQTDIVDLQRSPMGRKQGGTLDDLEEQARELYRRLREKPRDQRTEGDSQEMVRLLLQAIQSFEKKVRVIYTQLSKTVVCKQKALELLPKVEEVVSLMNEDEKTVVRLQEKRQKELWNLLKIACSKVRGPVSGSPDSMNASRLSQPGQLMSQPSTASNSLPEPAKKSEELVAEAHNLCTLLENAIQDTVREQDQSFTALDWSWLQTEEEEHSCLEQAS
B4: IKK1-S176E-S180E: constitutive active mutant of IKKa/IKK1 (protein)
chain: MERPPGLRPGAGGPWEMRERLGTGGFGNVCLYQHRELDLKIAIKSCRLELSTKNRERWCHEIQIMKKLNHANVVKACDVPEELNILIHDVPLLAMEYCSGGDLRKLLNKPENCCGLKESQILSLLSDIGSGIRYLHENKIIHRDLKPENIVLQDVGGKIIHKIIDLGYAKDVDQGELCTEFVGTLQYLAPELFENKPYTATVDYWSFGTMVFECIAGYRPFLHHLQPFTWHEKIKKKDPKCIFACEEMSGEVRFSSHLPQPNSLCSLIVEPMENWLQLMLNWDPQQRGGPVDLTLKQPRCFVLMDHILNLKIVHILNMTSAKIISFLLPPDESLHSLQSRIERETGINTGSQELLSETGISLDPRKPASQCVLDGVRGCDSYMVYLFDKSKTVYEGPFASRSLSDCVNYIVQDSKIQLPIIQLRKVWAEAVHYVSGLKEDYSRLFQGQRAAMLSLLRYNANLTKMKNTLISASQQLKAKLEFFHKSIQLDLERYSEQMTYGISSEKMLKAWKEMEEKAIHYAEVGVIGYLEDQIMSLHAEIMGLQKSPYGRRQGDLMESLEQRAIDLYKQLKHRPSDHSYSDSTEMVKIIVHTVQSQDRVLKELFGHLSKLLGCKQKIIDLLPKVEVALSNIKEADNTVMFMQGKRQKEIWHLLKIACTQSSARSLVGSSLEGAVTPQTSAWLPPTSAEHDHSLSCVVTPQDGETSAQMIEENLNCLGHLSTIIHEANEEQGNSMMNLDWSWLTE

How the values were obtained:
[1] = test system: bone marrow derived dendritic cells (DC); assay: Bone marrow derived dendritic cells expressing selective NF-κB activators: cytokine production, antigen presentation, immune response; type: cell-based; settings: compared to control DC
Description: The disclosure further provides that expression of a selective NF-κB activator can be used to improve the cytokine secretion, antigen presentation and immune response generated by antigen presenting cells, including dendritic cells. The disclosure further provides a method of improving the efficacy of vaccine, including cancer vaccines, by expression of a selective NF-κB activator in the antigen presenting cells ex vivo or in vivo. In one embodiment, the use of selective NF-κB activators increase cytokine production (e.g., TNFα) by antigen presenting cells (e.g., dendritic cells) by more than at least 15%.

EG7.OVA tumor cells = assay: EG7.OVA tumor therapy in C57BL/6 mice; type: in vivo, mouse; settings: transduced DC injection or direct lentivector injection after lethal dose of EG7.OVA
Experimental: Tumor therapy. EG7.OVA tumor cells are grown in RPMI plus 0.4 mg/ml G418 (Invitrogen). C57BL/6 mice are challenged with 2×10^6 tumor cells injected s.c. into the flank and then vaccinated.
Mice are inoculated with a lethal dose of EG7.OVA tumor cells before vaccinating them either with transduced DCs or with the human NEMO-K277A-, human NEMO-K277A-deltaV249-K255-, mouse NEMO-K270A- and IKK2-S177E-S181E-vectors directly. All mice are shown to develop tumors.

BM-derived DCs = assay: Maturation markers on transduced bone marrow-derived dendritic cells by flow cytometry; type: cell-based, mouse; settings: for maturation markers CD86, CD40, ICAM-1 and CD80 on DCs: compared to transduced DCs in the control vector group; for retention of CD86 on transduced DCs: culture
Experimental: Transduction of DCs and flow cytometry. Murine bone marrow-derived Dendritic cells (DCs) are prepared as previously described. Immature DCs are transduced on day 4 at an MOT of 20 with lentiviral vectors as described (Rowe H M et al, Molecular Therapy, 13, 2, 2006) and fed every 4 days with fresh medium containing granulocyte-macrophage colony-stimulating factor (50 ng/ml; from Peprotech). On day 5 posttransduction, DCs are harvested, washed, and blocked for Fc receptors before surface staining for maturation markers with the following biotin-conjugated Abs: anti-CD11c, anti-CD86, and anti-I-Ab (MHC class II) (all from BD Pharmingen); anti-CD40 (from Serotec); and anti-CD80, anti-ICAM-1, and anti-Kb (MHC class I) (all from eBioscience). A hamster isotype control Ab (biotin conjugated) is purchased from BD Pharmingen. Abs are then labeled with streptavidin RPE Cy-5 2o reagent (DakoCytomation) before flow cytometry. Lipopolysaccharide (LPS) (50 ng/ml) (Sigma) is added to untransduced DCs and left overnight as a positive control for maturation. Zymosan A (10 μg/ml) treatment (for 30 min at 37° C.) is used as a control for ERK activation.

NF-κB = assay: NF-κB-Luciferase reporter assay in transfected 293FT cells (normalized to RSV-LacZ); type: cell-based; settings: NF-κB-Luciferase plus RSV-LacZ reporter
Experimental: The different constructs were transfected in 293FT cells along with an NF-κB-Luciferase reporeter construct and a RSV-LacZ (normalization control) reporter construct and tested for their ability to activate NF-κB using assay described previously.
The constructs were transfected into 293FT cells along with an NF-κB-Luciferase reporeter construct and a RSV-LacZ reporter construct. Approximately 8 hours, post-transfection, cells were left untreated or treated with AP20187 (100 nM). After approximately 72 hours, cell lysates were prepared and analyzed for NF-κB luciferase and LacZ activities as described previously. NF-κB-Luc activity was normalized for LacZ activity to control for difference in transfection efficiency.

lymph node DCs = assay: Lymph node dendritic cells after subcutaneous lentivector injection; type: in vivo, mouse; settings: s.c. lentivector injection; compared to control vector-injected animals
Experimental: DC purification from lymph nodes. C57/BL6 mice (Harlan) are injected subcutaneously (s.c.) at the base of the tail with 1×10^8 infectious units (i.u.) lentivector. Six days later, lymph nodes (para-aortical and inguinal) are harvested (cells from mice in each group were pooled), incubated with collagenase CLS-4 (Worthington), and mashed to obtain single-cell suspensions. Fc receptors are blocked before CD11c-positive cells are selected using MACS beads (Miltenyi Biotec).
Following s.c. lentivector injection, transduced DCs are detected in the draining lymph nodes.

| Molecule | cytokine production, antigen presentation and immune response of DC [1] | number of tumor-free mice (EG7.OVA tumor cells) | maturation markers CD86, CD40, ICAM-1 and CD80 on DCs (BM-derived DCs) | retention of CD86 on transduced DCs (BM-derived DCs) | activation of NF-κB (NF-κB) | CD86 on lymph node DCs (lymph node DCs) |
| --- | --- | --- | --- | --- | --- | --- |
| K13-opt: vFLIP K13 encoded by human codon optimized nucleic acid sequence | superior cytokine production, antigen presentation, and immune response |  |  |  |  |  |
| hNEMO-K277A: human NEMO mutant K277A, constitutively active selective NF-κB activator used as accessory module | superior cytokine production, antigen presentation, and immune response | higher than that in the control group | upregulated | retain their upregulated CD86 for several weeks in culture | strong activation | upregulation of CD86 |
| hNEMO-K277G: hNEMO mutant in which Lys (K) at residue 277 is replaced by G |  |  |  |  | weak activation |  |
| hNEMO-K277I: hNEMO mutant in which Lys (K) at residue 277 is replaced by I |  |  |  |  | weak activation |  |
| hNEMO-K277L: hNEMO mutant K277L |  |  |  |  | NF-κB activation |  |
| B1 | superior cytokine production, antigen presentation, and immune response | higher than that in the control group | upregulated | retain their upregulated CD86 for several weeks in culture | strong activation | upregulation of CD86 |
| B2 | superior cytokine production, antigen presentation, and immune response | higher than that in the control group | upregulated | retain their upregulated CD86 for several weeks in culture | NF-κB activation | upregulation of CD86 |
| B3 | superior cytokine production, antigen presentation, and immune response | higher than that in the control group | upregulated | retain their upregulated CD86 for several weeks in culture |  | upregulation of CD86 |
| B4 | superior cytokine production, antigen presentation, and immune response |  |  |  |  |  |
